From patent US20130116185A1, “PHOSPHATIDYLINOSITOL 3-KINASES ACTIVITY REGULATOR INCLUDING THE FIFTH ZINC FINGER DOMAIN OF FOG2” (SNU R&DB FOUNDATION, priority 2010, published 2013) come the findings set out here.

Type in all cases: cell-based
Data set [1] relates to MDA MB 231 cells. The data set is described as follows: Cell migration, modified Boyden chamber method. To be noted: 18 hr migration. In short, it runs like this:
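MDA MB 231 cells, transfected with FOG2 constructs (24 hr) or treated 2 days with 4 μM peptides/DMSO, were seeded serum-free (1×10^5) in Boyden chambers, serum-free below, 18 hr at 37° C. Giemsa-stained migrated cells counted in six random fields; mean cells per field.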

The subject of data set [2] is MDA MB 231 cells. The data set is described as follows: Apoptosis by FACS analysis (propidium iodide) in MDA MB 231 cells. The following applies: for number of apoptotic cells: transfected with 1 μg FOG2 fragment, 2 days, FIG. 7A. The protocol:
PI3K inactivation has been reported to cause cancer cell apoptosis, and FOG2 is known to inhibit the PI3K activity. To test whether PI3K inactivation by overexpressing FOG2 induces apoptosis, MDA MB 231 cells overexpressed FOG2 were analyzed with FACS.
MDA MB 231 cells were incubated with Full-FOG2[1-1151], FOG2[1-412], FOG2[413-789] or FOG2[802-1151]. The cells (5×10^4) were seeded in a 12-well plate and transfected with 1 μg of Full-FOG2[1-1151], FOG2[1-412], FOG2[413-789] or FOG2[802-1151] using Lipofectamine 2000. The cells were incubated at 37° C. for 2 days and subject to FACS analysis.
The cells were incubated with FOG2 fragments and fixed with 70% ethanol for 16 hr. The fixed cells were stained using RNase (5 mg/ml) and propidium iodide ([…]). The amount of DNA in stained cells was analyzed with Cell Quest program of FACS caliber (Becton Dickinson).

In the next data set the test system is Hep3B cells. The data set is described as follows: Apoptosis by FACS analysis in Hep3B cells. The following applies: synthesized peptides, 48 hr of treatment, FIG. 4B. The procedure:
PI3K inactivation is known to cause cancer cell apoptosis, and FOG2 is known to inhibit PI3K activity. To test whether PI3K inactivation by overexpressing FOG2 induces apoptosis, Hep3B cells treated with the peptide synthesized in <Experiment 3> were analyzed with FACS.
(In general: Flow cytometry measures light scatter and fluorescence of single cells or particles in a stream.)

A further data set has as its system MCF 7. The data set is described as follows: Apoptosis by FACS analysis in MCF7 cells. The following applies: synthesized peptides, FIG. 7D. The text has this:
FIG. 7D is a graph showing the apoptotic effect by synthesized zinc finger domain peptides of FOG2 in MCF7 cells according to FACS analysis;

In data set [3] the target is T1, PI3K (Homo sapiens, UniProt P27986). The data set is described as follows: PI3K activity in MDA MB 231 cells incubated with zinc finger domain peptides. Set-up: The cell lysates were immunoprecipitated with p85α (sc-1637, Santa Cruz) and Protein G-Sepharose beads; endogenous in cells. The following applies: synthesized peptides, FIG. 5. The procedure:
(§1) For measurement of PI3K activity, 10 μl of sonicated PIP2 (1 μg/μl, Calbiochem), 10 μl of 100 mM MgCl2 and 1 μl of [-^32P]ATP (500 μCi/ml) were added to the kinase buffer (10 mM Tris-HCl (pH 7.4), 150 mM NaCl, 1 mM Na3VO4, 10 mM ZnCl2) and incubated at 37° C. for 30 min. After incubation, 20 μl of 6 N HCl was added to stop the reaction and PIP2 was extracted by treatment with 200 μl of methanol:chloroform (1:1) solution. The amount of radioactively labeled PIP2 in the extract was measured using a scintillator counter.
For peptide treatment, cells were trypsinized to detach them from a culture dish and their aliquot (2×10^5 cells) was incubated with 4 μM peptides in 100 mm dishes. The control was incubated with Mock (DMSO).

Data set [4] has as its target T1, PI3K. The data set is described as follows: IGF-1-induced PI3K activation in Hep3B cells incubated with peptides. Also on record: The cell lysates were immunoprecipitated with p85α (sc-1637, Santa Cruz) and Protein G-Sepharose beads; endogenous in cells; host or cells: Hep3B. The following applies: 4 μM peptides, 48 hr, FIG. 2C. The procedure: as §1
In addition, Hep3B liver cancer cells were incubated with 4 μM peptides for 48 hr and the PI3K activity was analyzed.

A further data set has as its system Akt. The data set is described as follows: Akt phosphorylation by Western blot in transfected Hep3B cells after IGF-1 stimulation. To be noted: FIG. 1D. The procedure:
Hep3B cells were transfected with FOG2 mutants having modified zinc finger domain to measure the effect on the Akt signaling by FOG2-ZF-5m. The Akt activity was measured by analyzed Akt phosphorylation.
Hep3B cells were transfected with pCK-flag (control), FOG2-wt (wild type) and FOG2 mutants having modified zinc finger domain (FOG2-ZF-5-m and FOG2-ZF-6-m) and stimulated with IGF-1. The expression of Akt (Cell signaling Technology, USA), pAkt (Cell signaling Technology, USA) and GAPDH(Santa cruz, USA) were measured by Western blot analysis.

The subject of data set [5] is MDA MB 231 cells. The data set is described as follows: Cell proliferation MTT assay. The following applies: transfected with 100 ng DNA, 3 days post-transfection, FIG. 6A. Put shortly: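 Cells (2×10^3/well) were treated with 4 μM peptide for 3 days, or transfected with 100 ng FOG2 wild-type or zinc-finger mutant plasmid and assayed 3 days later. MTT (2 mg/ml) was added for 1 h at 37 °C, dissolved in DMSO, and absorbance was read at 590 nm.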
On the technique in general: Formazan colour is commonly taken as a measure of viable cells.

The next data set has as its system HCT116 cells. The data set is described as follows: Apoptosis by FACS analysis in HCT116 cells. The following applies: 2 days after transfection, FIG. 4A. The protocol:
PI3K inactivation is known to cause cancer cell apoptosis, and FOG2 is known to inhibit PI3K activity. To test whether PI3K inactivation by overexpressing FOG2 induces apoptosis, HCT116 cells transfected with pCK-flag (control), FOG2-wt (wild type) and FOG2 mutants (FOG2-ZF-5-m and FOG2-ZF-6-m) were analyzed with FACS.

Data set [6] deals with T1, PI3K. The data set is described as follows: PI3K activity in Hep3B cells transfected with FOG2 constructs (p85α immunoprecipitation, 32P-ATP/PIP2 kinase assay). Set-up: The cell lysates were immunoprecipitated with p85α (sc-1637, Santa Cruz) and Protein G-Sepharose beads; endogenous in cells; host or cells: Hep3B. To be noted: 100 ng/ml IGF-1 30 min, FIG. 1C. The protocol:
To investigate the inhibitory effect to PI3K activity by FOG2 zinc finger domain, PI3K activity was analyzed using FOG2 mutants having modified zinc finger domain. Specially, it is known that IGF signaling pathway plays an important role in cancer and the increased IGF-1 level enhances the risk of various cancers in many researches.
Accordingly, the PI3K activity was increased by incubating Hep3B cells with IGF-1 and then measured when the cells were incubated with peptides having mutated FOG2 zinc finger domain.
After Hep3B cells incubation, 100 ng/ml IGF-1 (Insulin like growth factor-1) was added to the cells and incubated for 30 min.
Hep3B cells were transfected with pCK-flag (control), FOG2-wt (wild type) and FOG2 mutants having modified zinc finger domain (FOG2-ZF-5-m and FOG2-ZF-6-m). Two days later, the lysates were obtained using a lysis buffer (20 mM Hepes (pH7.4), 100 mM NaCl, 20 mM KAc, 10 mM MgCl2, 10 mM ZnCl2, 1 mM Na3VO4, 1% NPO4). The cell lysates were immunoprecipitated with p85α (sc-1637, Santa Cruz) and Protein G-Sepharose beads using the same method above. After binding to beads, the lysates were washed 2 times with the lysis buffer and one time with the wash buffer (0.1 M Tris-HCl (pH 7.4), 5 mM LiCl, and 0.1 mM Na3VO4).
as §1

T1 sequence (P27986 whole entry, the tested form may be a part): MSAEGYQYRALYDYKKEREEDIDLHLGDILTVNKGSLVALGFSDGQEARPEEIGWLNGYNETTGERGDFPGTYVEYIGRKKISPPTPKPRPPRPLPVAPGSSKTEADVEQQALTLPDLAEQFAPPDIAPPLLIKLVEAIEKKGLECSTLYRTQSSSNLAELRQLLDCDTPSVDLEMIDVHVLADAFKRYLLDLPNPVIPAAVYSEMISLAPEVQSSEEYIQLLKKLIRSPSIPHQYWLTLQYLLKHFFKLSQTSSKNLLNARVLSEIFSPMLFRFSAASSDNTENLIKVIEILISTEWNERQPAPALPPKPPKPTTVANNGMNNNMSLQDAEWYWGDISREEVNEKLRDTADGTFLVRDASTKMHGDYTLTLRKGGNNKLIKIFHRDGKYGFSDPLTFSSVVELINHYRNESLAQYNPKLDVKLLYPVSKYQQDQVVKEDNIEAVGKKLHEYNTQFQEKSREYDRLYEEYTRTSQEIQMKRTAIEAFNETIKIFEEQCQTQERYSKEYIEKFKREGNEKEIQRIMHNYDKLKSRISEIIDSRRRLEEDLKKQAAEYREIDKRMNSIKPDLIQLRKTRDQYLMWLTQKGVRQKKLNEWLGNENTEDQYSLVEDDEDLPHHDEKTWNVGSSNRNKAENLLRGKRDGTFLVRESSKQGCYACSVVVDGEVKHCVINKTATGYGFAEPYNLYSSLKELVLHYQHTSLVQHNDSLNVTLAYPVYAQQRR

“ZF-5-wt-20: The peptide comprising a portion of the fifth zinc finger domain of FOG2 (20 amino acids) (CFECNITFNNLDNYLVHKKH)”: in the data set on MDA MB 231 cells [1] (4 μM peptide, 2 days of treatment, FIG. 3B), the “reduction of cell migration” value is given as “reduce the cell migration”. The apoptosis result in the data set on MDA MB 231 cells [2] (synthesized peptides, FIG. 7C) is on record as “promoted apoptosis”; in the data set with Hep3B cells, “induced apoptosis”; in the data set with MCF 7, “promoted apoptosis”. Moreover, the PI3K activity entry in the data set with PI3K [3] was “decrease PI3K activity”. In addition, the “IGF-1-induced PI3K activation” value with PI3K [4] was “inhibited”.

B1: FOG2-wt: The wild type of FOG2; full-length FOG2 cDNA cloned into the pCK-flag vector and overexpressed (protein)
chain: MSRRKQSKPRQIKRPLEDAIEDEEEECPSEETDIISKGDFPLEESFSTEFGPENLSCEEVEYFCNKGDDEGIQETAESDGDTQSEKPGQPGVETDDWDGPGELEVFQKDGERKIQSRQQLPVGTTWGPFPGKMDLNNNSLKTKAQVPMVLTAGPKWLLDVTWQGVEDNKNNCIVYSKGGQLWCTTTKAISEGEELIAFVVDFDSRLQAASQMTLTEGMYPARLLDSIQLLPQQAAMASILPTAIVNKDIFPCKSCGIWYRSERNLQAHLMYYCSGRQREAAPVSEENEDSAHQISSLCPFPQCTKSFSNARALEMHLNSHSGVKMEEFLPPGASLKCTVCSYTADSVINFHQHLFSHLTQAAFRCNHCHFGFQTQRELLQHQELHVPSGKLPRESDMEHSPSATEDSLQPATDLLTRSELPQSQKAMQTKDASSDTELDKCEKKTQLFLTNQRPEIQPTTNKQSFSYTKIKSEPSSPRLASSPVQPNIGPSFPVGPFLSQFSFPQDITMVPQASEILAKMSELVHRRLRHGSSSYPPVIYSPLMPKGATCFECNITFNNLDNYLVHKKHYCSSRWQQMAKSPEFPSVSEKMPEALSPNTGQTSINLLNPAAHSADPENPLLQTSCINSSTVLDLIGPNGKGHDKDFSTQTKKLSTSSNNDDKINGKPVDVKNPSVPLVDGESDPNKTTCEACNITFSRHETYMVHKQYYCATRHDPPLKRSASNKVPAMQRTMRTRKRRKMYEMCLPEQEQRPPLVQQRFLDVANLNNPCTSTQEPTEGLGECYHPRCDIFPGIVSKHLETSLTINKCVPVSKCDTTHSSVSCLEMDVPIDLSKKCLSQSERTTTSPKRLLDYHECTVCKISFNKVENYLAHKQNFCPVTAHQRNDLGQLDGKVFPNPESERNSPDVSYERSIIKCEKNGNLKQPSPNGNLFSSHLATLQGLKVFSEAAQLIATKEENRHLFLPQCLYPGAIKKAKGADQLSPYYGIKPSDYISGSLVIHNTDIEQSRNAENESPKGQASSNGCAALKKDSLPLLPKNRGMVIVNGGLKQDERPAANPQQENISQNPQHEDDHKSPSWISENPLAANENVSPGIPSAEEQLSSIAKGVNGSSQAPTSGKYCRLCDIQFNNLSNFITHKKFYCSSHAAEHVK
modifications: left off: small tags and cut ends
notes: The wild type of FOG2; full-length FOG2 cDNA cloned into the pCK-flag vector and overexpressed
B1: the Akt phosphorylation entry in the data set on Akt is given as “decreased”; in the data set with Akt (listed as FOG2-ZF-wt) it was “inhibited”. For the same molecule, in the data set with MDA MB 231 cells [5], the “reduction of cell proliferation” value was “about 40%”. Besides, the “reduction of cell migration” value in the data set on MDA MB 231 cells [1] (transfected 24 hr, FIG. 3A) was “approximately 80%”. Moreover, the “number of apoptotic cells” value was “reduces the apoptosis” in the data set with MDA MB 231 cells [2] (listed as FOG2[1-1151]) and “increased” in the data set on MDA MB 231 cells [2] (listed as Full-FOG2[1-1151]). Also, the apoptosis result in the data set on HCT116 cells was “increased apoptosis”. The “PI3K activation by IGF-1 stimulation” value with PI3K [6] is “inhibited”.
